Source: patent US20180118814A1

Experiments:
[1] = molecular target: HBsAg-L antigen (Beacle, BCL-AG-001) (hepatitis B virus); experiment: ELISA, plate coated with 1 µg/mL HBsAg-L, anti-human kappa-HRP detection, cell culture supernatant
[2] = molecular target: HBsAg-L antigen (Beacle, BCL-AG-001) (hepatitis B virus); experiment: ELISA, plate coated with 1 µg/mL HBsAg-L, anti-human kappa-HRP detection, purified protein

EC50 [1]: 0.057 nM
EC50 [2]: 0.061 nM
B1: HBV24G (antibody, human IgG1, kappa, V domains shown)
VH: QVQLVQSGAEVKAPGASVKVSCKASGYTFTSAWMNWVRQAPGQGLEWMGRIYPSGGSTSYAQKFQGRVTMTADKSTSTVYMELSSLRSEDTAVYYCAREYRVARWGQGTLVTVSS
VL: DIVMTQTPLSLSVTPGQPASISCKSSQSLLYSNGKTYLNWLLQKPGQPPQRLIYLVSNRDSGVPDRFSGSGSGTDFTLKISRVEAEDVGVYYCVQGTHFPQTFGGGTKVEIKR
